Experiments:
[1] = biological target: His6-GfcB (from pMCSG7, tag kept) (Escherichia coli O127:H6 str. E2348/69) (UniProt P75884); assay: cross-linking; purified proteins mixed at 5 μM in 20 mM Hepes, 150 mM NaCl, 0.06% DDM pH 7.5, cross-linked with DSP 1 hour at room temperature, SDS-PAGE, blots with anti-polyhistidine and anti-GfcC
[2] = biological target: GfcB-biotin (from pMCSG7, His6-tag removed, biotinylated) (Escherichia coli O127:H6 str. E2348/69) (UniProt P75884); assay: BLI; biotinylated GfcB on streptavidin sensor, GfcC in solution 0.2-1.6 μM, 25°C, 20 mM Tris-HCl pH 7.5, 150 mM NaCl, 0.1 mg/mL BSA; fit 1:1 and 1:1 with conformational change
[3] = biological target: GfcD-biotin (from pBH31, His-tag removed, biotinylated) (Escherichia coli O127:H6 str. E2348/69) (UniProt P75882); assay: BLI; biotinylated GfcD on streptavidin sensor, GfcB, GfcC or GfcBC in solution 3.75-60 μM, 25°C, 20 mM Tris-HCl pH 7.5, 150 mM NaCl, 0.1 mg/mL BSA, 0.02% DDM; 1:1 model
[4] = biological target: GfcD (expressed from pBH31, residues 22-698, His-tag removed by TEV) (Escherichia coli O127:H6 str. E2348/69) (UniProt P75882); assay: ITC; 160 μM GfcB-GfcC complex injected into 20 μM GfcD, 25°C, 20 mM Tris-HCl pH 7.5, 150 mM NaCl, 0.02% DDM; 1:1 model, n held at 1.0
[5] = biological target: GfcC (expressed from pMCSG7 without signal sequence, His6-tag removed) (Escherichia coli O127:H6 str. E2348/69) (UniProt P75883); assay: ITC; 100 μM GfcB injected into 10 μM GfcC, 25°C, 20 mM Tris-HCl pH 7.5, 150 mM NaCl; 1:1 model
[6] = biological target: GfcC-biotin (from pMCSG7, His6-tag removed, biotinylated) (Escherichia coli O127:H6 str. E2348/69) (UniProt P75883); assay: BLI; biotinylated GfcC on streptavidin sensor, GfcB (C-terminal His6, pETBlue2) in solution 0.1-1.6 μM, 25°C, 20 mM Tris-HCl pH 7.5, 150 mM NaCl, 0.1 mg/mL BSA; fit 1:1 and 1:1 with conformational change

“His6-GfcB (from pMCSG7, tag kept) (from UniProt P75884 16-214) (natural protein)” gave a stoichiometry N [1] of 2.

For “GfcC (expressed from pMCSG7 without signal sequence, His6-tag removed) (from UniProt P75883 23-248) (natural protein)”, the KD (1:1 with conformational change, binding step) [2] was 1010 nM, the Kd [2] was 374 nM and the ka1 (1:1 with conformational change, binding step) [2] was 59900 M⁻¹ s⁻¹. The kd1 (1:1 with conformational change, binding step) [2] was 0.0603 s⁻¹, the kd2 (1:1 with conformational change, conformational step) [2] was 0.015 s⁻¹ and the koff [2] was 0.0196 s⁻¹. The kon [2] was 52300 M⁻¹ s⁻¹, the Kd [3] was 257000 nM and the koff [3] was 0.0286 s⁻¹. It also gave a kon [3] of 111 M⁻¹ s⁻¹.

Substance “GfcB-GfcC heterodimer (from UniProt P75884 16-214; P75883 23-248) (complex)” has a Kd [3] of 9160 nM, a koff [3] of 0.00716 s⁻¹ and a kon [3] of 781 M⁻¹ s⁻¹. For the same substance, the Kd [4] was 28400 nM and the dH [4] was -7.24 kcal/mol.

“GfcB (expressed from pMCSG7 without signal sequence, His6-tag removed) (from UniProt P75884 16-214) (natural protein)” showed a Kd [3] of 14200 nM, a koff [3] of 0.00926 s⁻¹ and a kon [3] of 652 M⁻¹ s⁻¹. For the same substance, the Kd [5] was 99.8 nM, the dH [5] was -6.92 kcal/mol and the stoichiometry N [5] was 1.01.

For “GfcB with C-terminal His6-tag expressed from pETBlue2(gfcB) (from UniProt P75884 16-214) (natural protein)”, the KD (1:1 with conformational change, binding step) [6] was 407 nM, the Kd [6] was 175 nM and the ka1 (1:1 with conformational change, binding step) [6] was 80400 M⁻¹ s⁻¹. It also gave a kd1 (1:1 with conformational change, binding step) [6] of 0.0328 s⁻¹, a kd2 (1:1 with conformational change, conformational step) [6] of 0.0107 s⁻¹ and a koff [6] of 0.0126 s⁻¹. It also gave a kon [6] of 71700 M⁻¹ s⁻¹.

From PMC8592465
